These results are taken from PMC11957791.

For this experiment, the target named is SBW25 RimK (P. fluorescens SBW25) (UniProt C3KE61).
Sequence of UniProt C3KE61 (C3KE61 whole entry): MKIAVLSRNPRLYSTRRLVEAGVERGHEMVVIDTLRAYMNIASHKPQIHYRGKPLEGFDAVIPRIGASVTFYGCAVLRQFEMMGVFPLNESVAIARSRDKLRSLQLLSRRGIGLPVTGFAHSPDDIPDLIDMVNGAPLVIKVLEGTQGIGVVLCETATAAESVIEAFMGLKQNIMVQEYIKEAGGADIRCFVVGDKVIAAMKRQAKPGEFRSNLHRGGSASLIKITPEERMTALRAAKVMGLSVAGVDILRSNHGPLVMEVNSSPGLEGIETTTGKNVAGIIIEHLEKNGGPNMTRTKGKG

For SBW25 RimB (enzyme), the ATPase specific activity of SBW25 RimK (3.8 μM) with RimB (6.0 μM), linked PK/LDH assay; RimK only 47 nmol/min/mg RimK was determined as 196 nmol/min/mg.
